Assays:
Experiment in all cases: purified protein
Format in all cases: biochemical, Bacteroides thetaiotaomicron
Settings in all cases: 5 mM NAD+, 10 mM MOPS, 37 °C, 0.2 nM enzyme
purified protein [1] = substrate: C[C@H](CCC(=O)O)[C@H]1CC[C@H]2[C@@H]3[C@H](O)C[C@@H]4C[C@H](O)CC[C@]4(C)[C@H]3CC[C@]12C
purified protein [2] = substrate: C[C@H](CCC(=O)NCC(=O)O)[C@H]1CC[C@H]2[C@@H]3[C@H](O)C[C@@H]4C[C@H](O)CC[C@]4(C)[C@H]3CC[C@]12C
purified protein [3] = substrate: C[C@H](CCC(=O)O)[C@H]1CC[C@H]2[C@@H]3[C@H](O)C[C@@H]4C[C@H](O)CC[C@]4(C)[C@H]3C[C@H](O)[C@]12C
purified protein [4] = substrate: C[C@H](CCC(=O)NCCS(=O)(=O)O)[C@H]1CC[C@H]2[C@@H]3[C@H](O)C[C@@H]4C[C@H](O)CC[C@]4(C)[C@H]3CC[C@]12C

B1: HSDHa (BT_1911), 7α-hydroxysteroid dehydrogenase (Bacteroides thetaiotaomicron VPI-5482) (protein)
chain: MKRFENKVVVITGAAGGIGEATTRRIVSEGGKVVIADLSQERADKLAAELTQAGADVRPIYFSATELQSCKELVDFAMKEYGQIDVLINNVGGTDPKRDLNIEKLDIDYFDEVFHLNLCCTMYLSQQVIPIMTTHGGGNIVNVASISGLTADANGTLYGASKAGVINLTKYIATQMGKKNIRCNAVAPGLVLTPAALDNLNEEVRNIFLGQCATPYLGEPEDVAATIAFLASNDARYITGQTIVVDGGLTIHNPTVELS
notes: full-length codon-optimized gene, pETite C-His, C-terminal hexahistidine tag, E. coli Rosetta (DE3) pLysS, cobalt resin purified
- Km (purified protein [1]): 203.4 ± 24.3 µM
- kcat (purified protein [1]): 4580 ± 375 s⁻¹
- Km (purified protein [2]): 342.2 ± 104.1 µM
- kcat (purified protein [2]): 4090 ± 292 s⁻¹
- Km (purified protein [3]): 649.2 ± 167.6 µM
- kcat (purified protein [3]): 4070 ± 195 s⁻¹
- Km (purified protein [4]): 301.2 ± 60.4 µM
- kcat (purified protein [4]): 4520 ± 681 s⁻¹

From publication PMC10783122, “Loss of Bacteroides thetaiotaomicron bile acid-altering enzymes impacts bacterial fitness and the global metabolic transcriptome” (Microbiology Spectrum, 2023)
